Measured values: patent publication US20210324028A1
pKd: −log10 of the molar value. Like-named read-outs stand apart in the source and are kept apart here.

Assays:
Experiment in all cases: SPR, steady state
human IL-2Rβ (human) [1] = biological target: human IL-2Rβ (human) (UniProt P14784)
human IL-2Rβ (human) [2] = biological target: human IL-2Rβ (human) (UniProt P14784); remark: listed apart in the source
human IL-15Rα (human) = human IL-15Rα (human) (UniProt Q13261)
Sequence of human IL-15Rα (human) (Q13261 31-205 limits assumed): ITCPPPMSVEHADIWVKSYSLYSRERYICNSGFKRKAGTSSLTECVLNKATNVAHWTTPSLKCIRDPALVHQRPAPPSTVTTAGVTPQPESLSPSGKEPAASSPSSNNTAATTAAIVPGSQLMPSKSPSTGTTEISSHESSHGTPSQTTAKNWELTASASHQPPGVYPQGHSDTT

Sequence of human IL-2Rβ (human) (P14784 27-240 limits assumed): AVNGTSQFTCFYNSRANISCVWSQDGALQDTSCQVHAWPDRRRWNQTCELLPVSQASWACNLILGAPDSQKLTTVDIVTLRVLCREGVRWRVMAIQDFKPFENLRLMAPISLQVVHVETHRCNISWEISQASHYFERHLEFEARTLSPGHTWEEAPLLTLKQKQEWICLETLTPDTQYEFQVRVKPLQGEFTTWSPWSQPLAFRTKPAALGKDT

“IL-15Rasu-IL-15 (non-fusion, wild-type) (from UniProt Q13261 31-95)” gave a pKd (human IL-2Rβ (human) [1]) of 7.26 and a pKd (human IL-2Rβ (human) [2]) of 7.16.

hIL-15 V49R/E64 N/S (ligand) showed a pKd (human IL-2Rβ (human) [1]) of under 6.30 and a pKd (human IL-15Rα (human)) of 6.89.
